Data set [1] deals with O=[N+]([O-])c1ccc(OP(=O)(O)O)cc1. As to the kind of experiment: purified protein. The settings on record: pH 5.6, 45 °C, printed kcat, Km and kcat/Km do not agree.
For a further data set, the target named is Pho16B (uncultured organism, UniProt A0A3G1QTG4). As to the kind of experiment: phosphate release, ammonium molybdate assay at […] nm; Michaelis-Menten fit. The settings on record: pH 5.6, 45 °C; printed kcat, Km and kcat/Km do not agree.

For two substances, Km results are on record in paper PMC6409689, “Characteristics of the First Protein Tyrosine Phosphatase with Phytase Activity from a Soil Metagenome” (Genes, 2019).

Chain of Pho16B (A0A3G1QTG4 1-376): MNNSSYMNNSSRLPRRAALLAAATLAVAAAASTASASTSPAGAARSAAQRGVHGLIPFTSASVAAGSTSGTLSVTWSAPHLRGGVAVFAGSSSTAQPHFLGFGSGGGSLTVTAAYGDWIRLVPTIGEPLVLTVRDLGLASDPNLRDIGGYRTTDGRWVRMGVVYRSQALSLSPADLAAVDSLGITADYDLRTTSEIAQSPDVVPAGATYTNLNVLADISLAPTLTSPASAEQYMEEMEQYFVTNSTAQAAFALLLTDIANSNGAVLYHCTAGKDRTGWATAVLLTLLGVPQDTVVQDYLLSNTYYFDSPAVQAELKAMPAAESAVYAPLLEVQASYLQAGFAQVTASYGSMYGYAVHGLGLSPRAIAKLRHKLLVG

The term Km denotes the concentration of substrate that gives half-maximal velocity. For the substance Pho16B (uncultured organism), in data set [1], the Km stood at 1026 ± 140 µM.

Consider Naphthyl phosphate, for which the Km at Pho16B turned out to be 966 ± 180 µM.
